Measured values taken from patent publication US20230037815A1.

Target: cynomolgus CD19 (cynomolgus)
Test: Octet HTX (ForteBio), IgG on AHC sensor, 1:1 fit

- Kd: 1.3 nM
- koff: 0.000295 s⁻¹
B1: CNG-CD19-702 (antibody, V domains shown)
VH: QVQLQESGPGLVKPSQTLSLTCTVSGGSTSTSGMGVSWIRQHPGKGLEWIGHIWWDDDKRYNPVLKSRVTISVDTSKNQFSLKLSSVTAADTAVYYCARMELWSYYFDPWGQGTLVTVSS
VL: EIVLTQSPATLSLSPGERATLSCSASSSVSYMHWYQQKPGQAPRLLIYDTSKLASGIPARFSGSGSGTDFTLTISSLEPEDFAVYYCFQGSVYPFTFGQGTKLEIK
